Read-outs that look alike come from different tables or passages of the source.
System: cytochrome P-450 reductase from P. somniferum cell suspension cultures
Details: for Km: read-out: Km value, purified P. somniferum reductase (mixture of two isozymes)
Method: Purification and sequence analysis. Cells were harvested from seven-day-old suspension cultures of P. somniferum by vacuum filtration, immediately shock frozen and stored at −20° C. All of the following operations were carried out at 4° C. 500 g frozen tissue were then homogenised with a mortar and pestle in 1 liter 0.1 M tricine/NaOH, pH 7.5 containing 15 mM thioglycolic acid. Cell debris was removed by centrifugation at 10,000× g, 30 min. The supernatant was filtered through four layers of cheesecloth and the microsomes were then isolated by MgCl2 precipitation according to (19). […] Microsomal protein was solubilized as follows. 2 mg CHAPS (3[(3-cholamidopropyl)dimethyl-ammonio]-1-propane-sulfonate, Roth) per mg microsomal protein was prepared in 1 mL of 0.1 M tricine/NaOH, pH 7.5 containing 15 mM thioglycolic acid. This solution was added dropwise to the microsomal suspension. 2% (v/v) Emulgen 911 (Kao Corporation) was then added and the solution slowly stirred for 1 h. Membrane fragments were removed by centrifugation at 105,000× g for 60 min. The total activity in the solubilized microsomes was assigned the value 100%. The solubilized cytochrome P-450 reductase was then purified to electrophoretic homogeneity according to (20).
Yeast microsomes were isolated according to either (22) or (23) and the presence cytochrome P-450 reductase was measured as the ability to reduce cytochrome c (24).

cytochrome c [reference compound]
Km: 8.3 µM

NC(=O)C1=CN([C@@H]2O[C@H](COP(=O)(O)OP(=O)(O)OC[C@H]3O[C@@H](n4cnc5c(N)ncnc54)[C@H](OP(=O)(O)O)[C@@H]3O)[C@@H](O)[C@H]2O)C=CC1 [NADPH, reference compound]
Km: 4.2 µM

purified reductase: cytochrome P-450 reductase purified from P. somniferum cell suspension cultures
optimal molarity range of the Tricine buffer: 250 to 500 mM | activity declined to (at 100 mM Tricine): 21% | activity declined to (at 1 M Tricine): 77% | pH optimum (in 0.5 M Tricine buffer): 8.0

Reference: US7037674B1, “Cytochrome P450 reductases from poppy plants” (priority 1997, dated 2006)
